# Test results from patent US20180216136.
# Tested on: ZFN 30035 (AAVS1) (synthetic)
# Assay: cell_activity
# Conditions: pair 30035:30054 in CD34+ cells, higher AAV6 donor dose, ZFN mRNA 40 ug/ml
sequence,measurement,value
CCCCACTGTGGGGTGGAGGGGACAGATA (double strand) [AAVS1 30035 target],activity (% targeted integration),> 50
